Measurements taken from PMC10626418.
Non-standard residues stand in square brackets, D forms with d. Groups on a side chain read outwards from the residue. Primed or numbered codes have the meaning given here. No end group written: not given here. *: point of attachment. Biotin = O=C1N[C@H]2[C@H](CS[C@H]2CCCCC(=O)*)N1; PEG2′ = not defined here

Biological target: I-E^k (murine MHC class II molecule, surface-resident on BMDCs and B-cells) (mouse (endogenous in BMDCs and B-cells of B10.A mice))
Test: flow cytometry on cells; B-cells and BMDCs pulsed with 25 and 50 uM MCC-PEG2-biotin for up to 36 h (with LPS), stained with saturating mSav-AF647 or 14.4.4 scFV-AF647 (10 ug/ml); ratio of the MFIs

- proportion of surface-resident I-E^k loaded with the peptide: < 17%
Binder: ANERADLIAYLKQATK[dS][dS][dC]([maleimide-PEG2′-Biotin]) [C-terminally biotinylated MCC peptide 88-103 derivative (MCC-PEG2-biotin)]
